Consider 31 molecules from paper PMC6632053, “Incorporation of Putative Helix-Breaking Amino Acids in the Design of Novel Stapled Peptides: Exploring Biophysical and Cellular Permeability Properties” (Molecules, 2019).

Assay [1] concerns the target T1, human Mdm2 (1–125) (human).
T1 construct: Mdm2, human, residues 1-125; the stretch after the TEV site ENLYFQG of the fusion protein; No cleavage of the tags is described, so it is open whether the fusion or cleaved Mdm2 stood in the FP and ITC assays; also called purified recombinant human Mdm2 protein (amino acids 1–125); source: E. coli BL21 (DE3) Rosetta T1R, purified (Ni-NTA, gel filtration)
Nature of the assay: fluorescence polarisation; competition: unlabeled peptide titrated against the complex of 250 nM Mdm2 (1–125) and 50 nM FAM-labeled 12/1 peptide; apparent Kd from the tracer's Kd of […] nM; PBS pH 7.4, 0.1% Tween 20; triplicate. The conditions noted are these: both partners purified. On the technique in general: Fluorescence polarisation rises when a labelled molecule tumbles more slowly, as on binding a larger partner.

Assay [2] concerns the target T1, human Mdm2 (1–125). The description is as above. The following applies: both partners purified. This is another data set of the same source.
In assay [3] the target is T1, human Mdm2 (1–125). Nature of the assay: cell-based or functional assay.
In assay [4] the target is T1, human Mdm2 (1–125). Put plainly: ITC; 100–200 µM peptide titrated into 20 µM Mdm2 (1–125), 40 injections of 1 µL (reverse titration for insoluble peptides); 1× PBS pH 7.2, 3% DMSO, 0.001% Tween-20; duplicates. The following applies: both partners purified. (In general: ITC needs no label: the signal is the heat of the interaction.)
For assay [5], the target named is T1, human Mdm2 (1–125). Put plainly: cell-based or functional assay. This is another data set of the same source.

By stoichiometry N is commonly meant the number of molecules, sites or subunits per partner or assembly.

Bridge positions count the residues as written; N and C are the ends. Square brackets hold non-standard residues; d marks the D form. Primed or numbered codes have the meaning given here. Lys(N3) = [N-]=[N+]=NCCCC[C@H](N)C(=O)O; NMeQ = CN[C@@H](CCC(N)=O)C(=O)O; R8 = C=CCCCCCC[C@@](C)(N)C(=O)O; dCba = N[C@H](CC1CCC1)C(=O)O; S5 = C=CCCC[C@](C)(N)C(=O)O; NMeA = CN[C@@H](C)C(=O)O; Cba′ = not defined here; Aib = CC(C)(N)C(=O)O; βAla = NCCC(=O)O

T1 sequence (chain, as listed by the source): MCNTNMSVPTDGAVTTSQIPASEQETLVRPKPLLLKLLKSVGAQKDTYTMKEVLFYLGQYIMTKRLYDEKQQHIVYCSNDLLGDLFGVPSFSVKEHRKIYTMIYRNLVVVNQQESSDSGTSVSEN

As to Ac-[Lys(N3)][βAla]LTF[R8]EYWAQ[Cba′][S5]SAA-NH2 (staple 6-13; reading uncertain) [MP-081], the Kd in assay [1] amounted to 19 nM.

With Ac-LTF[R8]EYAQL[Cba′][S5]SAA-NH2 (staple 4-11; reading uncertain) [MP-292 W7A], the Kd in assay [2] worked out at 5090 nM. Besides, the “EC50, p53 responsive β-lactamase reporter in HCT116 cells (column Cellular)” value in assay [3] was 8800 nM. For the molecule Ac-[dL]TF[Aib]EYWQL[Cba′][Aib]SAA-NH2 (reading uncertain) [Linear L1(D-Leu)], in assay [2], the Kd turned out to be 277 nM. In the case of Ac-LTF[R8][dE]YWQL[Cba′][S5]SAA-NH2 (staple 4-11; reading uncertain) [MP-292 E5(D-Glu)], the Kd in assay [2] is 32 nM.

On to Ac-LTF[R8]EAWQL[Cba′][S5]SAA-NH2 (staple 4-11; reading uncertain) [MP-292 Y6A], for which the Kd in assay [2] was found to be 38.9 nM. Regarding Ac-LTF[Aib]EYWQ[dL][Cba′][Aib]SAA-NH2 (reading uncertain) [Linear L9(D-Leu)], the Kd in assay [2] worked out at 88 nM. Regarding Ac-LTF[R8]E[dY]WQL[Cba′][S5]SAA-NH2 (staple 4-11; reading uncertain) [MP-292 Y6 (D-Tyr)], the Kd in assay [2] amounted to 286 nM. Ac-[Lys(N3)][βAla]LTF[R8]EYWAQ[Cba′][S5]S[NMeA]A-NH2 (staple 6-13; reading uncertain) [MP-081 A13(N-methyl L-Ala)]: the Kd in assay [1] turned out to be 10 nM. Turning to Ac-LTF[R8]EYWAL[Cba′][S5]SAA-NH2 (staple 4-11; reading uncertain) [MP-292 Q8A], the Kd in assay [2] is 26.5 nM. On to Ac-[Lys(N3)][βAla]GTF[R8]EYWAQ[Cba′][S5]SAA-NH2 (staple 6-13; reading uncertain) [MP-081 L1G], for which the Kd in assay [1] is 22.1 nM.

For the molecule Ac-LTF[R8]EYWQL[Cba′][S5]SAA-NH2 (staple 4-11; reading uncertain) [MP-292], the Kd in assay [2] amounted to 18.6 nM. In addition, the “stoichiometry N” value in assay [4] came to 1. Also, in assay [5], the “EC50, p53 responsive β-lactamase reporter in HCT116 cells, 2% serum (data not shown)” value turned out to be 700 nM and the “EC50, p53 responsive β-lactamase reporter in HCT116 cells, 10% serum (data not shown)” value was 4200 nM. Further, the “EC50, p53 responsive β-lactamase reporter in HCT116 cells (column Cellular)” value in assay [3] worked out at 540 nM.

For Ac-LTF[R8]EYW[dQ]L[Cba′][S5]SAA-NH2 (staple 4-11; reading uncertain) [MP-292 Q8(D-Gln)], in assay [2], the Kd worked out at 22 nM.

On to Ac-LTF[Aib][dE]YWQL[Cba′][Aib]SAA-NH2 (reading uncertain) [Linear E5(D-Glu)], for which, in assay [2], the Kd is 135 nM. As for Ac-[dL]TF[R8]EYWQL[Cba′][S5]SAA-NH2 (staple 4-11; reading uncertain) [MP-292 L1(D-Leu)], in assay [2], the Kd came to 31 nM. Ac-LTF[R8]EYWQL[Cba′][S5][dS]AA-NH2 (staple 4-11; reading uncertain) [MP-292 S12(D-Ser)]: the Kd in assay [2] worked out at 8.6 nM. Turning to Ac-[Lys(N3)][βAla]LTF[R8]EYWAP[Cba′][S5]SAA-NH2 (staple 6-13; reading uncertain) [MP-081 Q9P], in assay [1], the Kd was determined as 77.1 nM. In the case of Ac-LTF[Aib]EYWQL[Cba′][Aib]SAA-NH2 (reading uncertain) [Linear Parent (MP-189)], the Kd in assay [2] is 43.1 nM. Consider Ac-LT[dF][R8]EYWQL[Cba′][S5]SAA-NH2 (staple 4-11; reading uncertain) [MP-292 F3(D-Phe)], for which, in assay [2], the Kd amounted to 6480 nM. With Ac-LTF[R8]EY[dW]QL[Cba′][S5]SAA-NH2 (staple 4-11; reading uncertain) [W6(D-Trp) (MP-384)], in assay [2], the Kd was found to be 30 nM.

Regarding Ac-[Lys(N3)][βAla]LTF[R8]EYW[NMeA]Q[Cba′][S5]SAA-NH2 (staple 6-13; reading uncertain) [MP-081 A8(N-methyl L-Ala)], in assay [1], the Kd worked out at 671 nM. Ac-LTF[R8]EYWQL[Cba′][S5]SA[dA]-NH2 (staple 4-11; reading uncertain) [MP-292 A14(D-Ala)]: the Kd in assay [2] is 18 nM.

Turning to Ac-LTF[R8]EYWQ[dL][Cba′][S5]SAA-NH2 (staple 4-11; reading uncertain) [MP-292 L9(D-Leu)], the Kd in assay [2] was determined as 30 nM.

In the case of Ac-[Lys(N3)][βAla]PTF[R8]EYWAQ[Cba′][S5]SAA-NH2 (staple 6-13; reading uncertain) [MP-081 L1P], in assay [1], the Kd came to 21.9 nM. Ac-LTF[R8]EYWQL[dCba][S5]SAA-NH2 (staple 4-11) [MP-292 Cba10(D-Cba)]: in assay [2], the Kd was 1650 nM. Consider Ac-LTF[R8]EYWQL[Cba′][S5]AAA-NH2 (staple 4-11; reading uncertain) [MP-292 S12A], for which the Kd in assay [2] worked out at 20.4 nM. Same read-out and setting: the value for Ac-L[dT]F[R8]EYWQL[Cba′][S5]SAA-NH2 (staple 4-11; reading uncertain) [MP-292 T2(D-Thr)] was 136 nM. On the same count and under the same terms, the figure for Ac-LTF[R8]EYWQL[Cba′][S5]S[dA]A-NH2 (staple 4-11; reading uncertain) [MP-292 A13(D-Ala)] is 17 nM; for Ac-LTF[R8]EYWQA[Cba′][S5]SAA-NH2 (staple 4-11; reading uncertain) [MP-292 L9A] it is 12 nM. Ac-[Lys(N3)][βAla]LTF[R8]EYWA[NMeQ][Cba′][S5]SAA-NH2 (staple 6-13; reading uncertain) [MP-081 Q9(N-methyl L-Gln)]: the Kd in assay [1] came to 211 nM. Still for that read-out and setting: the figure for Ac-[Lys(N3)][βAla]LTF[R8]EYWAG[Cba′][S5]SAA-NH2 (staple 6-13; reading uncertain) [MP-081 Q9G] is 42 nM; for Ac-[Lys(N3)][βAla]LTF[R8]GYWAQ[Cba′][S5]SAA-NH2 (staple 6-13; reading uncertain) [MP-081 E5G] it is 61.8 nM.
